B1: MIA2 (parent)
chain: NSISSDKEATVPCTEILTEKKDTI

Variants of: B1
Test: protein stability index of a GFP-peptide fusion (GPS, HEK-293T) (PSI 1-6); higher = more stable
Conditions: c terminus: a fixed tail appended
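Also: lentivirally expressed fusions sorted by FACS into six bins by GFP to DsRed ratio, PSI derived from sequencing read proportions per bin multiplied by bin number.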

Row | Variant | protein stability index
1 | NSISSDKEATVPCTEILWEKKDTI | 5.05
2 | NSISSDKEATVPCTEILPEKKDTI | 5.26
3 | NSISSDKEATVPCTEILAEKKDTI | 4.93
4 | NSISSDKEATVPCTEILDEKKDTI | 5.72
5 | NSISSDKEATVPCTEILGEKKDTI | 5.43
6 | NSISSDKEATVPCTEILYEKKDTI | 5.19
7 | NSISSDKEATVPCTEILVEKKDTI | 5.12
8 | NSISSDKEATVPCTEILQEKKDTI | 5.4
9 | NSISSDKEATVPCTEILMEKKDTI | 4.89
10 | NSISSDKEATVPCTEILEEKKDTI | 5.63
11 | NSISSDKEATVPCTEILHEKKDTI | 5.35
12 | NSISSDKEATVPCTEILKEKKDTI | 5.42
13 | NSISSDKEATVPCTEILREKKDTI | 5.1
14 | NSISSDKEATVPCTEILIEKKDTI | 5.19
15 | NSISSDKEATVPCTEILSEKKDTI | 5.39
16 | NSISSDKEATVPCTEILNEKKDTI | 5.46
17 | NSISSDKEATVPCTEILCEKKDTI | 5.05
18 | NSISSDKEATVPCTEILLEKKDTI | 5.11
19 | NSISSDKEATVPCTEILFEKKDTI | 5.48
20 | NSISSDKEYTVPCTEILTEKKDTI | 5.05
21 | NSISSDKEVTVPCTEILTEKKDTI | 5.17
22 | NSISSDKEWTVPCTEILTEKKDTI | 4.79
23 | NSISSDKEQTVPCTEILTEKKDTI | 5.25
24 | NSISSDKERTVPCTEILTEKKDTI | 5.23

Row | Variant | protein stability index
25 | NSISSDKEPTVPCTEILTEKKDTI | 5.38
26 | NSISSDKETTVPCTEILTEKKDTI | 5.38
27 | NSISSDKESTVPCTEILTEKKDTI | 5.31
28 | NSISSDKENTVPCTEILTEKKDTI | 4.88
29 | NSISSDKEMTVPCTEILTEKKDTI | 5.59
30 | NSISSDKEAGVPCTEILTEKKDTI | 5.4
31 | NSISSDKEAYVPCTEILTEKKDTI | 4.63
32 | NSISSDKEAAVPCTEILTEKKDTI | 5.65
33 | NSISSDKEAQVPCTEILTEKKDTI | 5.48
34 | NSISSDKEADVPCTEILTEKKDTI | 5.61
35 | NSISSDKEACVPCTEILTEKKDTI | 5.5
36 | NSISSDKEAKVPCTEILTEKKDTI | 5.24
37 | NSISSDKEASVPCTEILTEKKDTI | 5.72
38 | NSISSDKEAMVPCTEILTEKKDTI | 5.17
39 | NSISSDKEALVPCTEILTEKKDTI | 5.43
40 | NSISSDKEAVVPCTEILTEKKDTI | 5.29
41 | NSISSDKEAEVPCTEILTEKKDTI | 5.82
42 | NSISSDKEAHVPCTEILTEKKDTI | 5.48
43 | NSISSDKEARVPCTEILTEKKDTI | 4.85
44 | NSISSDKEANVPCTEILTEKKDTI | 5.6
45 | NSISSDKEAFVPCTEILTEKKDTI | 5.27
46 | NSISSDKEAWVPCTEILTEKKDTI | 5.07
47 | NSISSDKEAIVPCTEILTEKKDTI | 5.2
48 | NSISSDKEAPVPCTEILTEKKDTI | 5.32

Row | Variant | protein stability index
49 | NSISSDKEATVPCTEQLTEKKDTI | 5.65
50 | NSISSDKEATVPCTEPLTEKKDTI | 5.52
51 | NSISSDKEATVPCTEWLTEKKDTI | 5.26
52 | NSISSDKEATVPCTEHLTEKKDTI | 5.49
53 | NSISSDKEATVPCTEFLTEKKDTI | 5.19
54 | NSISSDKEATVPCTETLTEKKDTI | 5.63
55 | NSISSDKEATVPCTEGLTEKKDTI | 5.11
56 | NSISSDKEATVPCTEKLTEKKDTI | 5.64
57 | NSISSDKEATVPCTEMLTEKKDTI | 5.49
58 | NSISSDKEATVPCTEDLTEKKDTI | 5.81
59 | NSISSDKEATVPCTEVLTEKKDTI | 5.45
60 | NSISSDKEATVPCTECLTEKKDTI | 5.27
61 | NSISSDKEATVPCTELLTEKKDTI | 5.51
62 | NSISSDKEATVPCTESLTEKKDTI | 5.41
63 | NSISSDKEATVPCTEELTEKKDTI | 5.62
64 | NSISSDKEATVPCTEALTEKKDTI | 5.53
65 | NSISSDKEATVPCTERLTEKKDTI | 5.57
66 | NSISSDKEATVPCTEYLTEKKDTI | 5.12
67 | NSISSDKEATVPCTENLTEKKDTI | 5.47
68 | NSISSDKEATVPCTFILTEKKDTI | 4.46
69 | NSISSDKEATVPCTMILTEKKDTI | 4.68
70 | NSISSDKEATVPCTGILTEKKDTI | 4.92
71 | NSISSDKEATVPCTQILTEKKDTI | 5.32
72 | NSISSDKEATVPCTDILTEKKDTI | 5.45

Row | Variant | protein stability index
73 | NSISSDKEATVPCTIILTEKKDTI | 4.25
74 | NSISSDKEATVPCTVILTEKKDTI | 4.66
75 | NSISSDKEATVPCTWILTEKKDTI | 4.13
76 | NSISSDKEATVPCTAILTEKKDTI | 5.24
77 | NSISSDKEATVPCTTILTEKKDTI | 5.46
78 | NSISSDKEATVPCTNILTEKKDTI | 5.23
79 | NSISSDKEATVPCTLILTEKKDTI | 4.57
80 | NSISSDKEATVPCTSILTEKKDTI | 5.34
81 | NSISSDKEATVPCTKILTEKKDTI | 4.92
82 | NSISSDKEATVPCTCILTEKKDTI | 4.8
83 | NSISSDKEATVPCTYILTEKKDTI | 4.68
84 | NSISSDKEATVPCTPILTEKKDTI | 5.16
85 | NSISSDKEATVPCTRILTEKKDTI | 4.9
86 | NSISSDKEATVPCTHILTEKKDTI | 5.04
87 | NSISSDKEATVPITEILTEKKDTI | 5.54
88 | NSISSDKEATVPYTEILTEKKDTI | 5.01
89 | NSISSDKEATVPATEILTEKKDTI | 5.27
90 | NSISSDKEATVPMTEILTEKKDTI | 5.59
91 | NSISSDKEATVPSTEILTEKKDTI | 5.65
92 | NSISSDKEATVPDTEILTEKKDTI | 5.54
93 | NSISSDKEATVPKTEILTEKKDTI | 5.4
94 | NSISSDKEATVPFTEILTEKKDTI | 5.28
95 | NSISSDKEATVPHTEILTEKKDTI | 5.15
96 | NSISSDKEATVPLTEILTEKKDTI | 5.25

Row | Variant | protein stability index
97 | NSISSDKEATVPNTEILTEKKDTI | 5.7
98 | NSISSDKEATVPVTEILTEKKDTI | 5.58
99 | NSISSDKEATVPPTEILTEKKDTI | 5.35
100 | NSISSDKEATVPQTEILTEKKDTI | 5.57
101 | NSISSDKEATVPGTEILTEKKDTI | 5.49
102 | NSISSDKEATVPWTEILTEKKDTI | 5.06
103 | NSISSDKEATVPTTEILTEKKDTI | 5.66
104 | NSISSDKEATVPRTEILTEKKDTI | 4.99
105 | NSISSDKEATVPETEILTEKKDTI | 5.57
106 | NSISSDKEATVPCTEISTEKKDTI | 5.57
107 | NSISSDKEATVPCTEITTEKKDTI | 5.71
108 | NSISSDKEATVPCTEIETEKKDTI | 5.78
109 | NSISSDKEATVPCTEINTEKKDTI | 5.4
110 | NSISSDKEATVPCTEIYTEKKDTI | 5.37
111 | NSISSDKEATVPCTEIHTEKKDTI | 5.21
112 | NSISSDKEATVPCTEIGTEKKDTI | 5.64
113 | NSISSDKEATVPCTEIVTEKKDTI | 5.18
114 | NSISSDKEATVPCTEICTEKKDTI | 5.51
115 | NSISSDKEATVPCTEIATEKKDTI | 5.8
116 | NSISSDKEATVPCTEIMTEKKDTI | 5.28
117 | NSISSDKEATVPCTEIRTEKKDTI | 5.45
118 | NSISSDKEATVPCTEIFTEKKDTI | 5.29
119 | NSISSDKEATVPCTEIWTEKKDTI | 4.52
120 | NSISSDKEATVPCTEIPTEKKDTI | 5.62

Row | Variant | protein stability index
121 | NSISSDKEATVPCTEIITEKKDTI | 5.34
122 | NSISSDKEATVPCTEIQTEKKDTI | 5.4
123 | NSISSDKEATVPCTEIDTEKKDTI | 5.46
124 | NSISSDKEATVPCTEIKTEKKDTI | 5.46
125 | NSISSDKEATVLCTEILTEKKDTI | 4.54
126 | NSISSDKEATVYCTEILTEKKDTI | 4.34
127 | NSISSDKEATVFCTEILTEKKDTI | 4.92
128 | NSISSDKEATVDCTEILTEKKDTI | 5.53
129 | NSISSDKEATVRCTEILTEKKDTI | 5.38
130 | NSISSDKEATVNCTEILTEKKDTI | 5.51
131 | NSISSDKEATVTCTEILTEKKDTI | 5.48
132 | NSISSDKEATVMCTEILTEKKDTI | 5.21
133 | NSISSDKEATVACTEILTEKKDTI | 5.49
134 | NSISSDKEATVICTEILTEKKDTI | 5.11
135 | NSISSDKEATVECTEILTEKKDTI | 5.57
136 | NSISSDKEATVWCTEILTEKKDTI | 4.58
137 | NSISSDKEATVHCTEILTEKKDTI | 5
138 | NSISSDKEATVKCTEILTEKKDTI | 5.47
139 | NSISSDKEATVSCTEILTEKKDTI | 5.63
140 | NSISSDKEATVVCTEILTEKKDTI | 5.35
141 | NSISSDKEATVQCTEILTEKKDTI | 5.4
142 | NSISSDKEATVCCTEILTEKKDTI | 5.28
143 | NSISSDKEATVGCTEILTEKKDTI | 5.53
144 | NSISSDKEATVPCTEILTDKKDTI | 5.46

Row | Variant | protein stability index
145 | NSISSDKEATVPCTEILTFKKDTI | 4.62
146 | NSISSDKEATVPCTEILTCKKDTI | 5.21
147 | NSISSDKEATVPCTEILTHKKDTI | 5.03
148 | NSISSDKEATVPCTEILTAKKDTI | 5.34
149 | NSISSDKEATVPCTEILTIKKDTI | 4.72
150 | NSISSDKEATVPCTEILTGKKDTI | 5.22
151 | NSISSDKEATCPCTEILTEKKDTI | 4.84
152 | NSISSDKEATKPCTEILTEKKDTI | 5.59
153 | NSISSDKEATQPCTEILTEKKDTI | 5.53
154 | NSISSDKEATIPCTEILTEKKDTI | 5.28
155 | NSISSDKEATHPCTEILTEKKDTI | 4.62
156 | NSISSDKEATPPCTEILTEKKDTI | 5.55
157 | NSISSDKEATEPCTEILTEKKDTI | 5.52
158 | NSISSDKEATDPCTEILTEKKDTI | 5.72
159 | NSISSDKEATFPCTEILTEKKDTI | 5.43
160 | NSISSDKEATSPCTEILTEKKDTI | 5.22
161 | NSISSDKEATGPCTEILTEKKDTI | 5.07
162 | NSISSDKEATAPCTEILTEKKDTI | 5.38
163 | NSISSDKEATWPCTEILTEKKDTI | 5.22
164 | NSISSDKEATMPCTEILTEKKDTI | 5.59
165 | NSISSDKEATTPCTEILTEKKDTI | 5.67
166 | NSISSDKEATYPCTEILTEKKDTI | 4.89
167 | NSISSDKEATRPCTEILTEKKDTI | 5.28
168 | NSISSDKEATNPCTEILTEKKDTI | 5.49

Row | Variant | protein stability index
169 | NSISSDKEATLPCTEILTEKKDTI | 5.41
170 | NSISSDKEATVPCDEILTEKKDTI | 5.88
171 | NSISSDKEATVPCFEILTEKKDTI | 4.93
172 | NSISSDKEATVPCYEILTEKKDTI | 5.1
173 | NSISSDKEATVPCNEILTEKKDTI | 5.42
174 | NSISSDKEATVPCVEILTEKKDTI | 5.42
175 | NSISSDKEATVPCAEILTEKKDTI | 5.36
176 | NSISSDKEATVPCQEILTEKKDTI | 5.13
177 | NSISSDKEATVPCREILTEKKDTI | 5.33
178 | NSISSDKEATVPCGEILTEKKDTI | 5.09
179 | NSISSDKEATVPCSEILTEKKDTI | 5.36
180 | NSISSDKEATVPCIEILTEKKDTI | 5.21
181 | NSISSDKEATVPCLEILTEKKDTI | 4.99
182 | NSISSDKEATVPCMEILTEKKDTI | 5.12
183 | NSISSDKEATVPCCEILTEKKDTI | 5.39
184 | NSISSDKEATVPCKEILTEKKDTI | 5.49
185 | NSISSDKEATVPCHEILTEKKDTI | 5.45
186 | NSISSDKEATVPCPEILTEKKDTI | 5.45
187 | NSISSDKEATVPCWEILTEKKDTI | 4.74
188 | NSISSDKEATVPCEEILTEKKDTI | 5.49

From the supplement of paper PMC10567573
